B1: His-tagged human MAVS-C79F expressed in MAVS-deficient MEFs (other, not shown: small tags and cut ends)
chain: MPFAEDKTYKYICRNFSNFCNVDVVEILPYLPCLTARDQDRLRATCTLSGNRDTLWHLFNTLQRRPGWVEYFIAALRGFELVDLADEVASVYQSYQPRTSDRPPDPLEPPSLPAERPGPPTPAAAHSIPYNSCREKEPSYPMPVQETQAPESPGENSEQALQTLSPRAIPRNPDGGPLESSSDLAALSPLTSSGHQEQDTELGSTHTAGATSSLTPSRGPVSPSVSFQPLARSTPRASRLPGPTGSVVSTGTSFSSSSPGLASAGAAEGKQGAESDQAEPIICSSGAEAPANSLPSKVPTTLMPVNTVALKVPANPASVSTVPSKLPTSSKPPGAVPSNALTNPAPSKLPINSTRAGMVPSKVPTSMVLTKVSASTVPTDGSSRNEETPAAPTPAGATGGSSAWLDSSSENRGLGSELSKPGVLASQVDSPFSGCFEDLAISASTSLGMGPCHGPEENEYKSEGTFGIHVAENPSIQLLEGNPGPPADPDGGPRPQADRKFQEREVPCHRPSPGALWLQVAVTGVLVVTLLVVLYRRRLH
notes: Expressed from vector pIRES in MAVS-KO MEFs; also called C79F variant; MAVS-C79F SNP
B2: Mouse MAVS, endogenous, on mitochondria of wild-type MEFs and BMDCs (other, UniProt Q8VCF0 1-503, looked up)
chain: MTFAEDKTYKYIRDNHSKFCCVDVLEILPYLSCLTASDQDRLRASYRQIGNRDTLWGLFNNLQRRPGWVEVFIRALQICELPGLADQVTRVYQSYLPPGTSLRSLEPLQLPDFPAAVSGPSAFAPGHNIPDHGLRETPSCPKPVQDTQPPESPVENSEQLLQTNSGAVARMSGGSLIPSPNQQALSPQPSREHQEQEPELGGAHAANVASVPIATYGPVSPTVSFQPLPRTALRTNLLSGVTVSALSADTSLSSSSTGSAFAKGAGDQAKAATCFSTTLTNSVTTSSVPSPRLVPVKTMSSKLPLSSKSTAAMTSTVLTNTAPSKLPSNSVYAGTVPSRVPASVAKAPANTIPPERNSKQAKETPEGPATKVTTGGNQTGPNSSIRSLHSGPEMSKPGVLVSQLDEPFSACSVDLAISPSSSLVSEPNHGPEENEYSSFRIQVDESPSADLLGSPEPLATQQPQEEEEHCASSMPWAKWLGATSALLAVFLAVMLYRSRRLAQ
notes: Endogenous full protein on the outer mitochondrial membrane of mouse cells; also called MAVS-WT (MEF); endogenous MAVS
B3: Homo sapiens mitochondrial antiviral signaling protein (MAVS), endogenous wild-type, as oligomers in human PBMC and in plasma of SLE patients (other)
chain: PFAEDKTYKYICRNFSNFCNVDVVEILPYLPCLTARDQDRLRATCTLSGNRDTLWHLFNTLQRRPGWVEYFIAALRGCELVDLADEVASVYQSYQPRTSDRPPDPLEPPSLPAERPGPPTPAAAHSIPYNSCREKEPSYPMPVQETQAPESPGENSEQALQTLSPRAIPRNPDGGPLESSSDLAALSPLTSSGHQEQDTELGSTHTAGATSSLTPSRGPVSPSVSFQPLARSTPRASRLPGPTGSVVSTGTSFSSSSPGLASAGAAEGKQGAESDQAEPIICSSGAEAPANSLPSKVPTTLMPVNTVALKVPANPASVSTVPSKLPTSSKPPGAVPSNALTNPAPSKLPINSTRAGMVPSKVPTSMVLTKVSASTVPTDGSSRNEETPAAPTPAGATGGSSAWLDSSSENRGLGSELSKPGVLASQVDSPFSGCFEDLAISASTSLGMGPCHGPEENEYKSEGTFGIHVAENPSIQLLEGNPGPPADPDGGPRPQADRKFQEREVPCHRPSPGALWLQVAVTGVLVVTLLVVLYRRRLH
notes: Endogenous protein from donors; In some experiments labelled with Alx488 or Alx546; also called MAVS-WT; SLE MAVS oligomers

Columns and labels:
[1] = target: the molecule itself; test: self-oligomerization in reconstituted MAVS-KO MEFs; semi-denaturing TGX gel and immunoblot
[2] = target: B3; test: purified plasma oligomers incubated with purified mitochondria of MAVS-WT MEFs, mitochondria re-purified; immunoblot
[3] = target: T1, His-tagged human MAVS-WT expressed in MAVS-deficient MEFs (human, UniProt Q7Z434 1-540, limits assumed); test: plasma oligomers incubated with mitochondria of MAVS-KO MEFs expressing His-tagged human MAVS-WT; anti-His immunoblot
T1 construct: also called His-tagged human WT MAVS; not shown: N-terminal His-tag

[4] = target: B1; test: plasma oligomers incubated with mitochondria of MAVS-KO MEFs expressing His-tagged human MAVS-C79F; anti-His immunoblot
[5] = target: the molecule itself; test: self-oligomerization in human PBMC from healthy donors; semi-denaturing agarose gel and immunoblot

B1: binds [1].

B2: binds [2].

B3: binds [3]; binds [4]; binds [5].

From US20190099470A1 (UNIVERSITY OF VERMONT AND STATE AGRICULTURAL COLLEGE, published 2019)
